Key:
[1] = target: human neonatal Fc receptor (FcRn) (human) (UniProt P55899); experiment: BLI; Octet RED384; receptors loaded on HIS1K or SAX biosensors and probed into mAbs in a 2-fold dilution series (20, 10, 5, 2.5, 1.25 μg/mL); pH 6.0; 1:1 model; apparent
[2] = target: rhesus neonatal Fc receptor (FcRn) (rhesus) (UniProt Q6V7J5); experiment: as above
[3] = target: human Fc gamma receptor IIIA, polymorphism V176 (human) (UniProt P08637); experiment: BLI; Octet RED384; receptors loaded on HIS1K or SAX biosensors, probed into mAbs in a dilution series (2000, 100, 50, 25, 12.5 ug/mL [sic]); pH 7.4; 1:1 model; apparent affinity
[4] = target: human Fc gamma receptor IIA, polymorphism R167 (human) (UniProt P12318); experiment: as above
[5] = target: human Fc gamma receptor IIIB, polymorphism NA1 (human) (UniProt O75015); experiment: as above
[6] = target: human Fc gamma receptor IIB (FcγRIIB) (human) (UniProt P31994); experiment: as above
[7] = target: human Fc gamma receptor IIIB, polymorphism NA2 (human) (UniProt O75015); experiment: as above
[8] = target: human Fc gamma receptor IIA, polymorphism H167 (human) (UniProt P12318); experiment: as above
[9] = target: human Fc gamma receptor I (FcγRI) (human) (UniProt P12314); experiment: as above
[10] = target: human Fc gamma receptor IIIA, polymorphism F176 (human) (UniProt P08637); experiment: as above
[11] = target: human neonatal Fc receptor (FcRn) (human) (UniProt P55899); experiment: BLI; Octet RED384; receptors loaded on HIS1K or SAX biosensors and probed into mAbs in a dilution series (2000, 100, 50, 25, 12.5 μg/mL as printed); pH 7.4; 1:1 model; apparent
[12] = target: rhesus neonatal Fc receptor (FcRn) (rhesus) (UniProt Q6V7J5); experiment: as above

human Fc gamma receptor I (FcγRI) (human), sequence (P12314 16-292): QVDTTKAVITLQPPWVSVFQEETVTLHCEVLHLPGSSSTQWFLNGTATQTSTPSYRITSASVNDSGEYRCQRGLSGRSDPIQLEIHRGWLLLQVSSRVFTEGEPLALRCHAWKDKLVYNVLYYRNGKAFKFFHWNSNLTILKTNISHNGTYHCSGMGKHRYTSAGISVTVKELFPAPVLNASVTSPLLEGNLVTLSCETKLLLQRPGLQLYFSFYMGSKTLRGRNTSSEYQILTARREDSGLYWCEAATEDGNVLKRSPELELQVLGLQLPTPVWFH
human Fc gamma receptor IIA, polymorphism H167 (human), sequence (P12318 34-217): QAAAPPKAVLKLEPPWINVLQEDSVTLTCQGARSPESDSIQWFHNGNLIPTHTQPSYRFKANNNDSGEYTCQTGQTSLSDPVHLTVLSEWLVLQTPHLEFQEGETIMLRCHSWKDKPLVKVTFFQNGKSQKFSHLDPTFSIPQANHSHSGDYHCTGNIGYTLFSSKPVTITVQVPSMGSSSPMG
human neonatal Fc receptor (FcRn) (human), sequence (P55899 24-297, chain 1 of 2): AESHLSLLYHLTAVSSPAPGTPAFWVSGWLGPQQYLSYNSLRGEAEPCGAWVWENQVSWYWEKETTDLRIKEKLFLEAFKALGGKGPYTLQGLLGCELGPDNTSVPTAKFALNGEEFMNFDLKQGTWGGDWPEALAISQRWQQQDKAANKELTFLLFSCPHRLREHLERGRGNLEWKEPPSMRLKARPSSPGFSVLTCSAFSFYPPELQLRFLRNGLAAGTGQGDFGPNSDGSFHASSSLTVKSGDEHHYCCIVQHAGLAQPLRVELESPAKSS
human neonatal Fc receptor (FcRn) (human), sequence (P61769 21-119, chain 2 of 2, further chain): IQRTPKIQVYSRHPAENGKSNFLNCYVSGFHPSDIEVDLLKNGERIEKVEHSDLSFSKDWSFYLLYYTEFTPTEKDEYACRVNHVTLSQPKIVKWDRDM
human Fc gamma receptor IIIB, polymorphism NA1 (human), sequence (O75015 17-233): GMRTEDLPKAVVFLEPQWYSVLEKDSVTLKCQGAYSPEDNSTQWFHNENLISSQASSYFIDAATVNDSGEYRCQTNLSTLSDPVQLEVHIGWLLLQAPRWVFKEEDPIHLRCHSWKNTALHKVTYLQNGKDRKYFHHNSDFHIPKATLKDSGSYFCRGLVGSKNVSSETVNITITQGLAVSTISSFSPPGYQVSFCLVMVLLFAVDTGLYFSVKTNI
human Fc gamma receptor IIA, polymorphism R167 (human), sequence (P12318 34-217 H167R): as the sequence (P12318 34-217) above, with H134R counted along it
human Fc gamma receptor IIIA, polymorphism V176 (human), sequence (P08637 17-208 F176V): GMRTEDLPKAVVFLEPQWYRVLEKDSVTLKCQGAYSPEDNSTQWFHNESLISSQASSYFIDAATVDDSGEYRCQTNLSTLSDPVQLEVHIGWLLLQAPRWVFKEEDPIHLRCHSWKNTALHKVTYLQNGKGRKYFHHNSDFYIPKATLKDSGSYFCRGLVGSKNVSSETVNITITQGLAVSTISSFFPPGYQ
human Fc gamma receptor IIB (FcγRIIB) (human), sequence (P31994 43-217): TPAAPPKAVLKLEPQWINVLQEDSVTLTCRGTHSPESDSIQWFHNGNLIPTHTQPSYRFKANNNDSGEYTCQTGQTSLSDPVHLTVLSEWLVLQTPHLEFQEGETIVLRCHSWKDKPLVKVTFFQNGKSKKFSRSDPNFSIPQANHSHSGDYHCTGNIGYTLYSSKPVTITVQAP
human Fc gamma receptor IIIA, polymorphism F176 (human), sequence (P08637 17-208): as the sequence (P08637 17-208 F176V) above, with V160F counted along it

Row | Substance | Kd [1] [nM] | Kd [2] [nM] | Kd [3] [nM] | koff [3] [s⁻¹] | kon [3] [M⁻¹ s⁻¹] | Kd [4] [nM] | koff [4] [s⁻¹] | kon [4] [M⁻¹ s⁻¹] | Kd [5] [nM] | koff [5] [s⁻¹] | kon [5] [M⁻¹ s⁻¹] | Kd [6] [nM] | koff [6] [s⁻¹] | kon [6] [M⁻¹ s⁻¹] | Kd [7] [nM] | koff [7] [s⁻¹] | kon [7] [M⁻¹ s⁻¹] | Kd [8] [nM] | koff [8] [s⁻¹] | kon [8] [M⁻¹ s⁻¹] | other results
1 | CIS43 (antibody) | 54.2 | 326 |  |  |  |  |  |  |  |  |  |  |  |  |  |  |  |  |  |  | 
2 | CIS43LS (CIS43 with the LS mutations M451L/N457S in the CH3 domain of the Fc region) (antibody) |  |  | 550 | 0.0433 | 78700 | 764 | 0.349 | 457000 | 1190 | 0.356 | 300000 | 3800 | 0.874 | 230000 | 854 | 0.25 | 293000 | 2490 | 0.598 | 240000 | Kd [9]: 15.8 nM; koff [9]: 0.00308 s⁻¹; kon [9]: 194000 M⁻¹ s⁻¹
3 | CIS43 human monoclonal antibody |  |  | 652 | 0.105 | 161000 | 1480 | 0.514 | 348000 | 1030 | 0.442 | 430000 | 3130 | 0.812 | 259000 | 1280 | 0.419 | 327000 | 3840 | 0.676 | 176000 | Kd [10]: 1740 nM; koff [10]: 0.273 s⁻¹; kon [10]: 157000 M⁻¹ s⁻¹; Kd [9]: 14.8 nM; koff [9]: 0.00278 s⁻¹; kon [9]: 187000 M⁻¹ s⁻¹
4 | CIS43LS (antibody) | 6.2 | 25.1 |  |  |  |  |  |  |  |  |  |  |  |  |  |  |  |  |  |  | Kd [11]: 234 nM; Kd [12]: 262 nM

Source: paper PMC7934869
